Positions count from the first letter of the chain named. In names and notes the source's numbering stands. No end group written: not given here. TMR = tetramethyl rhodamine dye
T1: Rb^P K548N (human, UniProt P06400 380-788, K548N)
T1 construct: also called variant 26
T1 sequence (looked up): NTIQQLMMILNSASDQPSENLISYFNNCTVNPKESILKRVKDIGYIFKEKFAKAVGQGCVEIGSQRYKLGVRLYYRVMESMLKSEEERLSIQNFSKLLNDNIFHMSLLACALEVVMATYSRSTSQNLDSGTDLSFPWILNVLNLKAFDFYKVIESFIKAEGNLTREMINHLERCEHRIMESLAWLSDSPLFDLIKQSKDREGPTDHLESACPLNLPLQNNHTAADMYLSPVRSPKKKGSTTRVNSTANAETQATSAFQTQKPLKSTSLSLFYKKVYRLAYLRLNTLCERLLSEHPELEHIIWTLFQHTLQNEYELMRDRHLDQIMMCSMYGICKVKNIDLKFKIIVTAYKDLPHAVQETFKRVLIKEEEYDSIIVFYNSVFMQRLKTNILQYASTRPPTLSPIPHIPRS

T2: Rb^P R668H (human, UniProt P06400 380-788, R668H)
T2 construct: also called variant 52
T2 sequence (looked up): T1 sequence (looked up) with N169K, R289H

T3: Rb^P V754G (human, UniProt P06400 380-788, V754G)
T3 construct: also called variant 73
T3 sequence (looked up): T1 sequence (looked up) with N169K, V375G

T4: Rb^P M704V (human, UniProt P06400 380-788, M704V)
T4 construct: also called variant 66
T4 sequence (looked up): T1 sequence (looked up) with N169K, M325V

T5: Rb^P S751C (human, UniProt P06400 380-788, S751C)
T5 construct: also called variant 71
T5 sequence (looked up): T1 sequence (looked up) with N169K, S372C

B1: TMR-E2F1^TD, peptide of the E2F1 transactivation domain (peptide)
peptide: {TMR}-GEGIRDLFDCDFGDLTPLD
notes: also called E2F^TD; source: synthetic peptide, bought: GenScript
B2: TMR-E7^LxCxE, LxCxE peptide of the E7 oncoprotein from HPV (peptide)
peptide: DLYCYEQLN
modifications: also: TMR label, position not given here
notes: source: synthetic peptide, bought: GenScript

Experiments:
Assay in all cases: fluorescence polarisation; 25 °C; unlabeled Rb^P titrated against 1.5 nM TMR-E2F1^TD or 7.5 nM TMR-E7^LxCxE; 25 mM Tris pH 8.0, 200 mM NaCl, 1 mM DTT, 0.1% Tween-20; 2 min incubation; quadratic fit; apparent Kd for the variants, Kd for WT
Details in all cases: both partners purified
Rb^P K548N = target: T1, Rb^P K548N
Rb^P R668H = target: T2, Rb^P R668H
Rb^P V754G = target: T3, Rb^P V754G
Rb^P M704V = target: T4, Rb^P M704V
Rb^P S751C = target: T5, Rb^P S751C

Row | Binder | Kd (Rb^P K548N) [µM] | Kd (Rb^P R668H) [µM] | Kd (Rb^P V754G) [µM] | Kd (Rb^P M704V) [µM] | Kd (Rb^P S751C) [µM]
1 | B1 | 0.133 | 0.013 | 0.02 | 0.041 | 0.066
2 | B2 | 0.006 | 0.007 | 0.007 | 0.018 | 0.044
